# According to patent US12576050B2, “Dosage regime” (priority 2018, dated 2026):
# B1: DNAse I (Pulmozyme): DNAse I (Pulmozyme) added at physiological concentration to sputum (protein, UniProt P24855 23-282, looked up)
# Deoxyribonuclease-1: LKIAAFNIQTFGETKMSNATLVSYIVQILSRYDIALVQEVRDSHLTAVGKLLDNLNQDAPDTYHYVVSEPLGRNSYKERYLFVYRPDQVSAVDSYYYDDGCEPCGNDTFNREPAIVRFFSRFTEVREFAIVPLHAAPGDAVAEIDALYDVYLDVQEKWGLEDVMLMGDFNAGCSYVRPSQWSSIRLWTSPTFQWLIPDSADTTATPTHCAYDRIVVAGMLLRGAVVPDSALPFNFQAAYGLSDQLAQAISDHYPVEVMLK
# Assay: In vitro mucolysis of patient sputum
# Conditions: very thick/purulent sputum, patient already on Pulmozyme
# Method: Patient had very thick/purulent sputum. The sputum from this patient was responsive to 5% cysteamine DPI formulation. Addition of DNAse I (Pulmozyme) at physiological concentration is having no effect, but this patient is already on Pulmozyme and recently had the dose tripled. The patient's sputum responded to in vitro tests with cysteamine (see FIG. 7). The sputum response was conducted in accordance with the general method outlined in EBioMedicine 2 (2015) 1507-1512 “Cysteamine as a Future Intervention in Cystic Fibrosis Against Current and Emerging Pathogens: A Patient-based ex vivo Study Confirming its Antimicrobial and Mucoactive Potential in Sputum”, Graham Devereux et al.
molecule,measurement,value
B1,Response of patient sputum (mucolysis),no effect
